In patent publication EP4785956A2 (CHUGAI SEIYAKU KABUSHIKI KAISHA, dated 2026):

B1: 305LO20-SG115 (antibody)
heavy: QVQLVESGGGLVQPGGSLRLSCAASGFTVHSSYYMAWVRQAPGKGLEWVGAIFTGSGAEYKAEWAKGRVTISKDTSKNQVVLTMTNMDPVDTATYYCASDAGYDYPTHAMHYWGQGTLVTVSSASTKGPSVFPLAPSSKSTSGGTAALGCLVKDYFPEPVTVSWNSGALTSGVHTFPAVLQSSGLYSLSSVVTVPSSSLGTQTYICNVNHKPSNTKVDKKVEPKSCDKTHTCPPCPAPELRRGPKVFLFPPKPKDTLMISRTPEVTCVVVDVSHEDPEVKFNWYVDGVEVHNAKTKPREEQYNSTYRVVSVLTVLHQDWLNGKEYKCKVSNKGLPSSIEKTISKAKGQPREPQVYTLPPSREEMTKNQVSLTCLVKGFYPSDIAVEWESNGQPENNYKTTPPVLDSDGSFFLYSKLTVDKSRWQQGNVFSCSVLHEALHAHYTRKELSLSP
light: DIQMTQSPSSLSASVGDRVTITCRASQGISSSLAWYQQKPGQAPRLLIYGASETESGVPSRFSGSGSGTDFTLTISSLQPEDFATYYCQNTKVGSSYGNTFGGGTKVEIKRTVAAPSVFIFPPSDEQLKSGTASVVCLLNNFYPREAKVQWKVDNALQSGNSQESVTEQDSKDSTYSLSSTLTLSKADYEKHKVYACEVTHQGLSSPVTKSFNRGEC
B2: 305LO20-SG422 (antibody)
heavy: QVQLVESGGGLVQPGGSLRLSCAASGFTVHSSYYMAWVRQAPGKGLEWVGAIFTGSGAEYKAEWAKGRVTISKDTSKNQVVLTMTNMDPVDTATYYCASDAGYDYPTHAMHYWGQGTLVTVSSASTKGPSVFPLAPCSRSTSGGTAALGCLVKDYFPEPVTVSWNSGALTSGVHTFPAVLQSSGLYSLSSVVTVPSSSLGTKTYTCNVDHKPSNTKVDKRVESKYGPPCPPCPAPEFRRGPKVFLFPPKPKDTLMISRTPEVTCVVVDVSHEDPEVKFNWYVDGVEVHNAKTKPREEQYNSTYRVVSVLTVLHQDWLNGKEYKCKVSNKGLPSSIEKTISKAKGQPREPQVYTLPPSREEMTKNQVSLTCLVKGFYPSDIAVEWESNGQPENNYKTTPPVLDSDGSFFLYSKLTVDKSRWQQGNVFSCSVLHEALHAHYTRKELSLSP
light: DIQMTQSPSSLSASVGDRVTITCRASQGISSSLAWYQQKPGQAPRLLIYGASETESGVPSRFSGSGSGTDFTLTISSLQPEDFATYYCQNTKVGSSYGNTFGGGTKVEIKRTVAAPSVFIFPPSDEQLKSGTASVVCLLNNFYPREAKVQWKVDNALQSGNSQESVTEQDSKDSTYSLSSTLTLSKADYEKHKVYACEVTHQGLSSPVTKSFNRGEC
B3: 305LO23-SG115 (antibody, V domains shown)
VH: QVQLVESGGGLVQPGGSLRLSCAASGFTVHSSYYMAWVRQAPGKGLEWVSGIFTGSGATYKAEWAKGRVTISKDTSKNQVVLTMTNMDPVDTATYYCASDAGYDYPTHAMHYWGQGTLVTVSS
VL: DIQMTQSPSSLSASVGDRVTITCRASQGISSSLAWYQQKPGQAPRLLIYGASTTQSGVPSRFSGSGSGTDFTLTISSLQPEDFATYYCQNTKVGSSYGNTFGGGTKVEIKR
B4: 305LO16-SG422 (antibody, V domains shown)
VH: QVQLVESGGGLVQPGRSLRLSCAASGFTVHSSYYMAWVRQAPGKGLEWVGAIFTGSGAEYKAEWVKGRFTISRDNSKNTLYLQMNSLRAEDTAVYYCASDAGYDYPTHAMHYWGRGTLVTVSS
VL: DIQMTQSPSSLSASVGDRVTITCRASQGISSSLAWYQQKPGKAPKLLIYGASETESGVPSRFSGSGSGTDFTLTISSLQPEDFATYYCQNTKVGSSYGNTFGGGTKVEIKR
B5: eculizumab-F760G4 (antibody, human IgG4 S228P, kappa)
heavy: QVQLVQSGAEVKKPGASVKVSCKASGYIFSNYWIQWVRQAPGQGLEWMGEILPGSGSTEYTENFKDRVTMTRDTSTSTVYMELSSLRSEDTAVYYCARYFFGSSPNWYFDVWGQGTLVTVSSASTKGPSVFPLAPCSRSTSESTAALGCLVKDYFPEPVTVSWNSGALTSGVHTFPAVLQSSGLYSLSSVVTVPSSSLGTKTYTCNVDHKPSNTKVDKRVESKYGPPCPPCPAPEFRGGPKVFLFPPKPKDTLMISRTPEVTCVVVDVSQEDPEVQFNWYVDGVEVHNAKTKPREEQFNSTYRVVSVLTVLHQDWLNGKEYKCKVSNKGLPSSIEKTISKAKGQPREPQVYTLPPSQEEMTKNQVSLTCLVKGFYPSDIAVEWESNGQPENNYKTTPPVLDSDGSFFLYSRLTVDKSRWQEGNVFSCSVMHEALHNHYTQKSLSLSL
light: DIQMTQSPSSLSASVGDRVTITCGASENIYGALNWYQQKPGKAPKLLIYGATNLADGVPSRFSGSGSGTDFTLTISSLQPEDFATYYCQNVLNTPLTFGQGTKVEIKRTVAAPSVFIFPPSDEQLKSGTASVVCLLNNFYPREAKVQWKVDNALQSGNSQESVTEQDSKDSTYSLSSTLTLSKADYEKHKVYACEVTHQGLSSPVTKSFNRGEC

Experiments:
recombinant human C5 = molecular target: T1, recombinant human C5 (human, UniProt P01031 20-1676); assay: SPR (BIACORE T200), ratio of kd of condition (2) and (1)
T1 construct: The same entry is used here for C5 in normal human serum in the functional rows; also called hC5; rhC5

[1] = molecular target: T2, recombinant MG1-MG2 domain of human C5 beta-chain (human, UniProt P01031 20-225); assay: SPR (BIACORE T200), antibody captured, MG1-MG2 domain injected, pH7.4, 37 degrees C
T2 construct: also called MG1-MG2 domain (1-225) of human C5

Binder | pH dependency (ratio of dissociation rate at pH5.8 to that at pH7.4) (recombinant human C5) | binding result [1]
B1 | 17.5 | 
B2 | 17.3 | 
B3 | 20.2 | 
B4 | 21.1 | 
B5 |  | no binding (tested: 20 nM and 40 nM)
